According to patent US20220073643A1:
Positions count from the first letter of the chain named.

B1: 406G3C4 (antibody, V domains shown)
VH: EIQLQQSGPELMKPGASVRISCKASGYSFISYYIYWVKQSHGKGLEWIGYIDPFNGNTNYNQKFKGKATLTVDRSSSTAYIHLNSLTSEDSAVYYCAIVNGYGRGAMDYWGQGTSVTVSS
VL: QIVLTQSPAIMSASPGEKVTMTCSASSSISYMHWYQQKSGTSPKRWIYDTSKLASGVPARFSGSGSGTSYSLTISSMEAEDAATYYCQQWSSNPLTFGDGTKLELK
B2: 394C2G5 (antibody, V domains shown)
VH: DVQLVESGGGLVQPGGSRKLSCAASGFTFSGFGMHWIRQTPEKGLEWVAYVSSGSRPIYYADTVKGRFTISRDNPKNTLFLQMTSLRSEDTAMYFCARFYYGNSFDHWGQGTLVTVSA
VL: DIVMTQSPSFLTVTAGEKVTMSCKSSQSLLNSGNQKNYLTWYQQKPGQPPKLLIYWASTRESGVPDRFTGSGSGTDFTLTINNVQAEDLALYYCQNAYSFPLTFGAGTKLELT
B3: 407E11H8 (antibody, V domains shown)
VH: B2 VH with G31D, V51I, A97V, Y101F
VL: B2 VL with S22T, K24R, S28N, Q35L, Y55S, N82S, N83S, A86P, T113K
B4: 405G8F11 (antibody, V domains shown)
VH: B2 VH with A23V, A24T, G31S, I37V, T40A, V51I, R56S, T84S, D106A, H107Y
VL: DIVMTQSPSSLTVTAGEKVTMNCKSSQSLLNSGNQKNYLTWYQQKLGQPPKLLMYWASTRESGVPDRFTGSGSGTDFTLTISSVQAEDLAVYFCQSAFSYPLTFGAGTKLELK
B5: 407A8G10 (antibody, V domains shown)
VH: B2 VH with V51I
VL: B2 VL with K24R, K36R, T78A, N82S, N83S, T113K
B6: 407H12E6 (antibody, V domains shown)
VH: B2 VH with F29V, G31S, I37V, T40A, V51I, R56S, M93I
VL: DIVMTQSPSSLTVTTGEKVTMSCKSSQSLLNSGNQKNYLTWYQQKPGQSPKLLIYWASTRESGVPDRFTGSGSGTDFTLTISSVQTEDLAVYFCQNNYFFPLTFGAGTKLELK
B7: 198F10B8 (antibody, V domains shown)
VH: QAYLQQSGAELVRSGASVRMSCKASGYTFSSYNMHWVKQTPGQGLEWIGYIYPGNGGTNYNQKFKDKATLTADTSSSTAFIQISSLTSEDSAVYFCLTGRGFAYWGQGTLVTVSA
VL: DIVMTQSPSSLTVTAGERVTMSCKSSQSLFNSGNQKNYLTWYQQKPGQPPKLLIYRASTRESGVPDRFTGSGSGTDFTLTISSVQAEDLAVYYCQNDYSYPLTFGVGTKLELK
B8: 406F11G8 (antibody, V domains shown)
VH: B2 VH with G31S, I37V, T40A, V51I, R56S, P75S, F99I, D106A, H107Y
VL: B7 VL with R18K, T20A, S28T, F30L, R56W, D97A, S99Y, V106S
B9: 395B3C11 (antibody, V domains shown)
VH: B2 VH with V51I, K65Q, A118S
VL: B2 VL with N82S, N83S, T113K
B10: 406E1H7 (antibody, V domains shown)
VH: B2 VH with V51I, K65Q, A118S
VL: B2 VL with N82S, N83S, T113K

Biological target: Claudin18.2-His protein (human)
Assay: indirect ELISA on coated Claudin18.2-His

| EC50 [ng/mL] | Binder |
| --- | --- |
| 9.18 | B1 |
| 8.46 | B2 |
| 17 | B3 |
| 1.99 | B4 |
| 5.54 | B5 |
| 126 | B6 |
| 31.5 | B7 |
| 16 | B8 |
| 4.43 | B9 |
| 9.55 | B10 |
